Test results published in patent publication US20090142300A1.

Target: T1, wild-type Toll-like receptor 3 (TLR3), homo sapiens (homo sapiens) (UniProt O15455)
T1 sequence: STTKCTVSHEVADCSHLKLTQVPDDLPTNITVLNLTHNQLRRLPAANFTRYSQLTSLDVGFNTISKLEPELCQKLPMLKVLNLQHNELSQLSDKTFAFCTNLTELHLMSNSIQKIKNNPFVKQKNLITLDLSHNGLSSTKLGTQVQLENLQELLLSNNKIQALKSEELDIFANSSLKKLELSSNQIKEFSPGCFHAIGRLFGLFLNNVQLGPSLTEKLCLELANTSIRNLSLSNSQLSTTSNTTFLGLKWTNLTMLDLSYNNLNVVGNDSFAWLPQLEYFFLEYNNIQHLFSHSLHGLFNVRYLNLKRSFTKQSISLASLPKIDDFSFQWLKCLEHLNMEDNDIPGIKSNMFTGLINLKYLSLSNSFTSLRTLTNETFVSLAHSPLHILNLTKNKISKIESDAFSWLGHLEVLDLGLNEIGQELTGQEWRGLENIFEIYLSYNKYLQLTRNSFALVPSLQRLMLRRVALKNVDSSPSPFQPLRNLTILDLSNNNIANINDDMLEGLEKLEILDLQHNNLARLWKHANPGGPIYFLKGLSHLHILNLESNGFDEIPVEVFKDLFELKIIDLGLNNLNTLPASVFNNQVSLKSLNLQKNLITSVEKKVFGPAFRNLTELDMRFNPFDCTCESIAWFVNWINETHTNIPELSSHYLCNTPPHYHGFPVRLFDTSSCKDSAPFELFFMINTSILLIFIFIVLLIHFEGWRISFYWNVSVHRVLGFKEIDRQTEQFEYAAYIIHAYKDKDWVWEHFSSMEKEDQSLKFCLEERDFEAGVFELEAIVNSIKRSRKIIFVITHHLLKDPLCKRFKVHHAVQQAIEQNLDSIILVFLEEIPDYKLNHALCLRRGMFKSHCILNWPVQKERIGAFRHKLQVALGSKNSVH
Experiment: cell-based or functional assay

Row | Substance | wild-type TLR3 activity with the mutant at six molar excess of WT (dominant negative assay) [%] | also measured
1 | K467EΔTIR, TLR3 mutant K467E lacking the TIR domain (from UniProt O15455 24-753) (receptor) | – | wild-type TLR3 activity with the mutant at six fold molar excess (dominant negative assay): 27%
2 | TLR3 mutant C37A (from UniProt O15455 24-904) (receptor) | 61 | –
3 | TLR3 mutant C696A (from UniProt O15455 24-904) (receptor) | 76 | –
4 | TLR3 mutant E442K (from UniProt O15455 24-904) (receptor) | – | wild-type TLR3 activity with the mutant at six molar excess to the WT (dominant negative assay): 51%
5 | TLR3 mutant H539E (from UniProt O15455 24-904) (receptor) | 16 | –
6 | TLR3 mutant N466A (from UniProt O15455 24-904) (receptor) | 17 | –
7 | ΔTIR, dominant negative version of TLR3 that lacks the TIR domain (from UniProt O15455 24-753) (receptor) | 14 | wild-type TLR3 activity (NF-kB luciferase reporter, poly(I:C) induced) with the mutant at 2-fold molar excess, relative to empty vector: 26%; wild-type TLR3 activity (NF-kB luciferase reporter, poly(I:C) induced) with the mutant at 6-fold molar excess, relative to empty vector: 12%
